{
  "source": "paper PMC2934757",
  "origin": "cited, not measured here",
  "biological_target": "IGF-1 (Homo sapiens) (UniProt P05019)",
  "sequence (P05019 49-118)": "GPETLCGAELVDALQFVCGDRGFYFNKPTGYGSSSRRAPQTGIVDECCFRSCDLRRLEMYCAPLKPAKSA",
  "data": [
    {"substance": "IGFBP-2 1-248 (from UniProt P18065)", "values": [
      {"measurement": "Kd", "value": 7, "unit": "nM"}
    ]}
  ]
}
